Here are results for ten sequences from a protein production outcome set (Wang et al. 2014).

The data set is described as follows: label from the status in PepcDB records.
For “MSIHVNEANLTFHLQTDHTSYIFQIMKNGEAGQIYYGPRIHVQPTYQNLMSQEWRDATPSLNEENPNFQPATIKAEYASLGKGDFRQPAFQVTQANGSRITELTYDHYQLLTGKQRLANLPSTFDDTDDDAQTLVVSFNDRITGLALDLNYSIFPHQDVIVKSAKFTNPSSEKLVLNRALSSQLDLPDANYDLIQFSGTWARERHLYRHPLRPGMQSISSLRMASSHQQNPFMMLARPQTTDEQGAVFGFNLVYSGNFLDAIEVDQYSTSRILTGINPDEFGWNLAPQATFQTPEAILSYTSAGMNQLSQQMASFYQQHLVNPRFAHEERPVLINNWEATYFDFNEAKLMTIVNQAKRLGIEMFVLDDGWFGHRDDDTTSLGDWFVDQRKFPDGIEHFSQAVHQQGMKFGLWFEPEMVSVDSDLYQQHPDWLIHAPKSTPTPGRHQFVLDMARPEVVDYLFKLMSQMIESANLDYIKWDMNRYATEMFSSRLTSDQQLELPHRYILGVYQLYARLTQAYPNVLFESCASGGGRFDLGMMYYAPQAWTSDDTDAAERLLIQFGTSYGYPQAMMGAHVSAVPNDQMGRITSLKTRGAVAFFGDLGYELDITKMAPTELDQVKKQVAFYKCYRQLFQFGKFYRIDSPFVEDGNVTSWQVVSDDQKQAIAARYQLLNHPNAPYTRFYFKGLRPNQRYQINDDPSTYYGDELMNAGYFVPTILADGQESKDFYTQLFVVTAILEHHHHHH”, the protein production result is on record as “not failed”.
Take “MRFPSLLALGLTLPLGAFAAGGDSTGGSTWTNPPKETQTTKECKGVKVWDDKKKRCVAPKNSGLDADTLYDAVRELAYAGRPADAQGVLAAMPDQSDDRVLTYWGFTHRKLGDLDRAAFYYQAAIAANPDNILARSYMGQGFVEAGKTDLAIAQWREITARGGEGSWAEVSLREAIRSGLTYSY”: the protein production entry is on record as “failed”.
“VGDHDSHEVMQRLDALLPTLRERAQETEDLRRIPDDSMKALQETGFFRLLQPEQWGGYQADPVLFYSAVRKIASACGSTGWVSSIIGVHNWHLALFSQQAQEDVWGNDTDVRISSSYAPMGAGQVVDGGYTVNGAWAWSSGCDHASWAVLGGPVIKDGRPVDFVSFLIPREDYRIDDVWNVVGLRGTGSNTVVVEDVFVPTHRVLSFKAMSNLTAPGLERNTAPVYKMPWGTIHPTTISAPIVGMAYGAYDAHVEHQGKRVRAAFAGEKAKDDPFAKVRIAEASSDIDAAWRQLSGNVADEYALLVAGEEVPFELRLRARRDQVRATGRAISSIDKLFESSGATALANGTPLQRFWRDAHAGRVHAANDPERAYVMYGTGEFGLPITDTMV”: the protein production result was “not failed”.
The same measure for “MEQTHLKYEQLKAILREMGSVLVAFSGGVDSTFLLRVAHGLLGDKAVAFTATSPTYPESEFREAVGLARSMGARQVVVESNELEIPGFAFNPRNRCYHCKKELFGLCGRTAAELGLAWVADGSNCDDLDDYRPGRAAAGELGVRSPLVEAGLTKADIRELSRELGLPTWDKQAFACLSSRFPYGTEITPERLRMVGACEEFLRENGFRVYRVRFHGDTARIETAPEEIPRLFDPSLRLRIAAFFREAGFAHVAVDLEGYRTGSMNTDAG”: “failed”; for “MGFLQRISLMITSLIILHTIPSTTSISITPDAPTMILIDSICVNTKNMYYCEQSIISKLGNPHAEIKTIADIAAFNAVYLITSAGNYIRDKFIPIAENPLVKNQLVLCLATYRAVQKLLEGAYLADRRGDYSDMRHYQSSVLGMLDNCKTDFDYMVRTNWGVRLMINISLLATRQLPAQ”: “failed”; for “MFNNKQKQLVIILISLLLTFTSQASLASDTTILNEIINPQLIHIYEWETLSVYEKENVSQKPANWDSAESFYGSTRLSLLGEERFYRAKFTIGWHHRTRNLAISVGPLKGTDEVYINGFRVDDSGSGDYDLFFQNSYRVYRLPRNKTWFSWFNYTKENELLIKLSSSKRGQVLDSDYVEIGDYETLALKSRDFDSTIKTSQGSAIALLFMLILFIIFLHVNQYNKKSNTLFGFFIFYLSLSIASTSLFLNGPEYDGELLLSLSACLDLVSLVVFIKIVSDKFDLNISHYKRNEKSIKIFGTVSVLCILIFSDIFFAQKWFNLIIYIVMLLVVISTIHQLVIGRNIGGANYSIVSALMIMFLGVAFNGLWGGNSWPISPYHIGAILSSIFLLYSIAQDFKKMTLSMHAMSSRLVNIREIERARLTRDIHDGVGQGLATIRLFITMNINNFEPQLGISLKNEVDQTSNTLKSVIRNLKPIEMDDGNPSEAIIELARHLCEIAQIEMKVIHSDKADMNTENAYQLYRIGQEALNNSIKHSCCTLITIDIQRDRDRLIMSISDNGKGIKKQVENLGYGLSSMQERALLIGGQLRINNAIDSGVQVFLEVPIND”: “failed”.
Take “MATTLLSPTRFVHGLRFDNLRGDIFGGITAAIVALPLALAFGVASGAGPIAGLYGAICTGFFAALFGGTPAQISGPTGPMTVVMASTFANLTASNPENGWAMALTVVMFGGIFQVVLGLLGLGKYITFMPYTVISGFMSGIGVIIVILQIAPLLGHQTAPGVVPSLQAIPTYLNDVNFAALGLGLIALAIVFFSPPRLNRILPAPLIALVLGTIISMIFFGNVSLPRIGEIPSGLPSLHLPYLSWGSLQQMLLYSIMLAVLGSLDSLLTSLVADNISRSHHDSDRELVGQGIGNLVSGLCGGLPGAGATMRTVININSGGKTPIAGMIHALILLMIVLKAGQLTEPIPHAVLAGILIKVGIDIVDWSFLKRAHQLSTKGAGLMYLVLGLTVFVDLITAVAVGVFVANLFTVKNLTDLQLESIKSVTRADGEDWLLEEEQQILRAANGRIFMFHLSGPMSFGAAKSIARRLAIVENYDVLILDLATVPRLGVTALLAIETMLKDALAKQREVFLVGAKGQVQARLQRLPVLAQLSPHHRLESRLLALQMAAVCINVD”: the protein production entry is listed as “failed”.
The result for “MFASCHCVPRGRRTMKMIHFRSSSVKSLSQEMRCTIRLLDDSEISCHIQRETKGQFLIDHICNYYSLLEKDYFGIRYVDPEKQRHWLEPNKSIFKQMKTHPPYTMCFRVKFYPHEPLKIKEELTRYLLYLQIKRDIFHGRLLCSFSDAAYLGACIVQAELGDYDPDEHPENYISEFEIFPKQSQKLERKIVEIHKNELRGQSPPVAEFNLLLKAHTLETYGVDPHPCKDSTGTTTFLGFTAAGFVVFQGNKRIHLIKWPDVCKLKFEGKTFYVIGTQKEKKAMLAFHTSTPAACKHLWKCGVENQAFYKYAKSSQIKTVSSSKIFFKGSRFRYSGKVAKEVVEASSKIQREPPEVHRANITQSRSSHSLNKQLIINMEPLQPLLPSPSEQEEELPLGEGVPLPKEENISAPLISSSPVKAAREYEDPPSEEEDKIKEEPLTISELVYNPSASLLPTPVDDDEIDMLFDCPSRLELEREDTDSFEDLEADENAFLIAEEEELKEARRALSWSYDILTGHIRVNPLVKSFSRLLVVGLGLLLFVFPLLLLLLESGIDLSFLCEIRQTPEFEQFHYEYYCPLKEWVAGKVHLILYMLGCS” reads “failed”.
The same measure for “MKGIMVQGTASDVGKSLICTALCRIFARRGYKVTPFKSQNMSNNSYITVEGLEIGRAQGIQAEAAMEEASVYMNPILLKPRNDREAEIVCFGQAVDTVSGVKYRDGFYKRGLEAIKQALATLSQSFDMVVIEGAGSPVEVNLNDRELVNMKVAELADVPVILVADIERGGVFASLYGTLELLQPNERKRVVGIIVNKFRGDPELFSSGVQWIEQHLGVPVLGVLPHLPGVRIEGEDSLSKGQVTSVLPRDQSIDIAVLDLPYLSNYTDLEPFRYEEDVAIRFVSSVDALGRPDAIILPGTKSTFHDLQILKEKGFKERLHEYVTTDGTVVAICGGFQMLGHRLIDVAGSDTGIKGATIDGLDLAPVETRFAEKKKTVRSLGQLLHPFGTAKDIYGFEIHLGETDIVDPSIPAFLRVGNHTDGVYLHEGRLIGTYFHHLFFNDDFRSGWLNTLRRKKGLRERPTVELEKCRRASYDQLADEVERVLHVDSLLEKMERWGETSLEHHHHHH”: “not failed”; for “MSLDIEQQFLNDLDNQLWRAADKLRSNLDAANYKHVVLGLIFLKYVSDAFEERQQELTELFQKDDDDNIYYLPREDYDSDEAYQQAIAEELEIGDYYTEKNVFWVPKTARWNKLRDVITLPTGSVIWQDEQGEDVKLRSVSWLIDNAFDDIEKANPKLKGILNRISQYQLDADKLIGLINEFSLTSFNNPEYNGEKLNLKSKDILGHVYEYFLGQFALAEGKQGGQYYTPKSIVTLIVEMLEPYKGRVYDPAMGSGGFFVSSDKFIEKHANVKHYNASEQKKQISVYGQESNPTTWKLAAMNMVIRGIDFNFGKKNADSFLDDQHPDLRADFVMTNPPFNMKDWWHEKLADDPRWTINTNGEKRILTPPTGNANFAWMLHMLYHLAPTGSMALLLANGSMSSNTNNEGEIRKTLVEQDLVECMVALPGQLFTNTQIPACIWFLTKDKNAKNGKRDRRGQVLFIDARKLGYMKDRVLRDFKDEDIQKLADTFHNWQQEWSEENNQAGFCFSADLALIRKNDFVLTPGRYVGAEAEEDEGHHHHHH”: “not failed”.
